The values that follow come from US20200369771A1 (JOINT STOCK COMPANY BIOCAD, published 2020).

Assay [1] concerns the target T1, rabbit PD-L1-Fc (rabbit, UniProt G1SUI3 19-236).
T1 construct: also called rabbity PD-L1-Fc; not shown: Fc part
T1 sequence: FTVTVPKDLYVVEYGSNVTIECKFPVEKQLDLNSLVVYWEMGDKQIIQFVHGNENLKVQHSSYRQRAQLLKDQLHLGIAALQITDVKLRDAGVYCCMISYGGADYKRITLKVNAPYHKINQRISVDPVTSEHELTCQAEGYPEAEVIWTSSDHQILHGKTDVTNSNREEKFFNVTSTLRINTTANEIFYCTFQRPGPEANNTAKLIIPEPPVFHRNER
In words: ELISA, PD-L1-Fc coated at 0.5 ug/ml. As for the experimental part: (§1) ELISA was used to measure the relative affinity of anti-PD-L1 antibodies from different organisms. For the binding assay, ELISA plate wells (medium binding from Greiner bio one) were coated with 50 μl of human, cynomolgus, murine, rat, canine, rabbity PD-L1-Fc, (0.5 μg/ml in 1× carbonate buffer), hermetically sealed and incubated overnight at 4° C. All the subsequent stages were conducted following standard ELISA protocol described above.

The target of assay [2] is T2, IL17a (Homo sapiens (Human), UniProt Q16552 24-155).
T2 construct: Off-target antigen in the specificity ELISA
T2 sequence (Q16552 24-155 limits assumed): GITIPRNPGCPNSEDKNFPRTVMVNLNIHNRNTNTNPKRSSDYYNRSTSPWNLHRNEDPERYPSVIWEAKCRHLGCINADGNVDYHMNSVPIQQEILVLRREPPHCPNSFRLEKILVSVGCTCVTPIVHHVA
Kind of assay: ELISA, antigen coated at 1 µg/ml, BCD-135 titrated 5 to 0.0007 µg/ml, OD 450 nm. How it is done: (§2) ELISA was used to measure the relative affinity of anti-PD-L1 antibodies and other antigens. For binding assay, ELISA plate wells (medium binding from Greiner bio one) were coated with 50 μl of PD-L1-Fc, fPCSK9-EPEA, Ang2-H6F, GM-CSF-FE, CD3-ED-Fc, IL17a, CD38-Fc, IL6R-Fc (1 μg/ml in lx carbonate buffer), hermetically sealed and incubated overnight at 4° C. All the subsequent stages were conducted following standard ELISA protocol. To block a non-specific binding, a buffer BB (200 μL of 0.5% skimmed milk in PBS) was added. The plates were incubated on a shaker for an hour at room temperature. […] The plates were again incubated, shaking for one hour at room temperature, followed by washing for three times each plate well with PBS-Twin buffer. Once washed, (50 μL/well) anti-human Fab HRP-conjugated secondary antibodies (from Pierce-ThermoScientific) were added at 1:5000 ratio in PBS-Tween. The plates were shaken on a rotary shaker (50 min, room temperature) and washed for three times with FSB-Twin buffer, as described above. The colourimetric signal was developed by adding TMB (50 μL/well) until saturation (average 3-5 min), then the development was quenched by adding stop solution (30 μL/well, 10% sulphuric acid). Colour signal was measured at a wavelength of 450 nm using a suitable Tecan-Sunrise plate reader (from Tecan).
On the technique in general: ELISA stands for enzyme-linked immunosorbent assay.

The target of assay [3] is T3, cynomolgus PD-L1-Fc (cynomolgus, UniProt G7PSE7 19-238).
T3 construct: not shown: Fc part
T3 sequence (G7PSE7 entry or part of it): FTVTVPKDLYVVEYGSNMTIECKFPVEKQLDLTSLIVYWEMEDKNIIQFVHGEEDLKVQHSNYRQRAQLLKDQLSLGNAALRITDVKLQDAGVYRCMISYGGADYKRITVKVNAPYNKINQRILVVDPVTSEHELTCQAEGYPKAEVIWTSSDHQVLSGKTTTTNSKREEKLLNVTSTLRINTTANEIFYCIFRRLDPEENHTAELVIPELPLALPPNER
In words: ELISA, PD-L1-Fc coated at 0.5 µg/ml, antibody titrated 5 to 0.0007 µg/ml, OD 450 nm. How it is done: as §1

For assay [4], the target named is T4, murine PD-L1-Fc (murine, UniProt Q9EP73 19-239, limits assumed).
T4 construct: not shown: Fc part
T4 sequence (Q9EP73 19-239 limits assumed): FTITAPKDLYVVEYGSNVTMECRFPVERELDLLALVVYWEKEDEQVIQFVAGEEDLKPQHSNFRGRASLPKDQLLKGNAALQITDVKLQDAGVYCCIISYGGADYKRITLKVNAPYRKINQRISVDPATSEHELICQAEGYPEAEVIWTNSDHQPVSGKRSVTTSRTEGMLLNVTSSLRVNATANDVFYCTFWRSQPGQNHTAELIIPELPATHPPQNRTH
Described as above. How it is done: as §1

Assay [5] has as its target rat PD-L1-Fc (rat, UniProt D4AE25 19-239). The description is as above. As for the experimental part:
as §1

Assay [6] concerns the target T5, canine PD-L1-Fc (canine, UniProt E2RKZ5 19-236).
T5 sequence: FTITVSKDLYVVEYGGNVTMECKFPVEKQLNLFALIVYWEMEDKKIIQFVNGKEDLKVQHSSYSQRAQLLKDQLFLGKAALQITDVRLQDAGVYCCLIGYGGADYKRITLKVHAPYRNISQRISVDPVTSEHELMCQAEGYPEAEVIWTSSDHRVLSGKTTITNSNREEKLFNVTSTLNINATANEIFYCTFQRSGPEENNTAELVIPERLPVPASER
The description is as above. As for the experimental part:
as §1

Assay [7] concerns the target T6, human PD-L1-Fc (human, UniProt Q9NZQ7 19-238, limits assumed).
T6 construct: not shown: Fc part
The description is as above. As for the experimental part:
as §1

In assay [8] the target is T7, human PD-L1 (recombinant, in solution) (human, UniProt Q9NZQ7 19-238, limits assumed).
T7 construct: also called human PD-L1 antigen
T7 sequence (Q9NZQ7 other isoform, or with tags, fused parts or gaps limits assumed): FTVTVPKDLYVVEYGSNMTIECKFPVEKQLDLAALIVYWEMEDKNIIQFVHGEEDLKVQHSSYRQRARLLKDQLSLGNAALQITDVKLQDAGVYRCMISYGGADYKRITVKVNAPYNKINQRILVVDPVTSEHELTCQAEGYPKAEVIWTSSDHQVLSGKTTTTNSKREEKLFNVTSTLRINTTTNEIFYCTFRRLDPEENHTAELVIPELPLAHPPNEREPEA
In words: BLI OctetRed 96, BCD-135 on AR2G sensors, PD-L1 in solution at 10 to 1 ug/ml, 30 C, 1:1 model; human PD-L1. How it is done: (§3) Constants of the antibody binding affinity to human and cynomolgus PD-L1 were measured with an OctetRed 96 instrument (from ForteBio). […] The assay was carried out at 30 ° C. using PBS containing 0.1% Tween-20 and 0.1% BSA as a reaction buffer. The binding of human and monkey PD-L1 solutions to a sensor-bound antibody was analysed in a work buffer with an antigen concentration of 10 μg/ml to 1 μg/ml.
(§4) The binding curves minus the reference signal were analyzed using Octet Data Analysis (ver 8.2) software according to the standard procedure using the 1:1 interaction model.

Assay [9] deals with T6, human PD-L1-Fc. In words: ELISA, antigen coated at 1 µg/ml, BCD-135 titrated 5 to 0.0007 µg/ml, anti-human Fab HRP, OD 450 nm. As for the experimental part:
as §2

Assay [10] deals with T8, cynomolgus monkey PD-L1 (in solution) (cynomolgus monkey, UniProt G7PSE7 19-238).
T8 construct: also called cynomolgus PD-L1 antigen
T8 sequence (G7PSE7 entry or part of it): as the sequence (G7PSE7 entry or part of it) above
Kind of assay: BLI OctetRed 96, BCD-135 on AR2G sensors, PD-L1 in solution at 10 to 1 ug/ml, 30 C, 1:1 model; cynomolgus PD-L1. As for the experimental part: as §3, §4

For assay [11], the target named is T9, FcgRIa (Homo sapiens (Human), UniProt P12314 16-292, C-terminal biotin; the letters of any biotinylation or purification tag are not given).
T9 construct: Biotinylated receptor held on streptavidin sensors; also called Fcg receptor; Fcγ-receptor
T9 sequence (P12314 16-292 limits assumed): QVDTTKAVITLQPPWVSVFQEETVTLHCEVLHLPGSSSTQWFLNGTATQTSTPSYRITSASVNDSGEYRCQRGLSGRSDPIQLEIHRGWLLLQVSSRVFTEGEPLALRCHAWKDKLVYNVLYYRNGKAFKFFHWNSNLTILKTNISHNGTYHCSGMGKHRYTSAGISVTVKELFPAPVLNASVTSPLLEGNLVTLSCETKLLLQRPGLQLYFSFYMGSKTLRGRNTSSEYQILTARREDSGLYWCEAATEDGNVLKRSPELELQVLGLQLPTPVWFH
Kind of assay: Biolayer interferometry (Octet RED96), biotinylated receptor on streptavidin sensors, antibody in solution, phosphate buffer pH 7.4. A general note: In BLI a coated tip is dipped into the sample, and binding shifts an interference pattern.

Assay [12] addresses T7, human PD-L1 (recombinant, in solution). Kind of assay: BLI Octet Red 96, Fab from E. coli supernatant on anti-FABCH1 sensors, PD-L1 at 30 ug/mL, 1:1 model. As for the experimental part:
Anti-FABCH1-biosensors (SA) were rehydrated for 30 minutes in the reaction buffer containing 10 mM PBS, pH 7.2-7.4, 0.1% Tween-20, 0.1% BSA. The reaction buffer was added into study E. coli supernatant samples to a final concentration of 1×. Then, anti-FABCH1-biosensors were submerged in E. coli supernatants containing Fab fragments of candidate antibodies for 12 hours at 4 ° C. Sensors with surface immobilized Fab fragments were transferred into wells with reaction buffer wherein baseline was recorded (for 60 seconds). Next, sensors were transferred to wells with analyte solution (PD-L1, 30 μg/mL) to associate antigen-antibody complex (300 s). Then, sensors were returned to the wells containing the reaction buffer for the next dissociation step (600 s). After each experiment, used sensors were regenerated by 3-time placing them into the regeneration buffer (Gly-HCl, pH 1.7), thereafter they were used in the next experiment. Obtained curve analysis was carried out using Octet Data Analysis (ver 7.0) software according to the standard procedure using 1:1 interaction model.

Where a chain is given by its changes, count along the chain named.

T6 sequence (Q9NZQ7 19-238 limits assumed): as the sequence (G7PSE7 entry or part of it) above, with T33A, S34A, N62S, Q68R, R82Q, L173F, A185T, I192T, L215H counted along it
Chain of rat PD-L1-Fc (D4AE25 entry or part of it limits assumed): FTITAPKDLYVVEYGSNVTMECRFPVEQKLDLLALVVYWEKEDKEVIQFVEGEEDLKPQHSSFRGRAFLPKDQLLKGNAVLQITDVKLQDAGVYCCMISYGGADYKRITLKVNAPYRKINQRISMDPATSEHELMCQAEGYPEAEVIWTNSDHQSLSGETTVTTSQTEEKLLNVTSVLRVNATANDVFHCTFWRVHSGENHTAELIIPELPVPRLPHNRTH

B1: BCD-135 antibody (antibody, human IgG1, lambda, L234A L235A)
heavy: not shown
light: QTVVTQEPSLSVSPGGTVTLTCGLSSGTVTAINYPGWYQQTPGQAPRTLIYNTNTRHSGVPDRFSGSISGNKAALTITGAQAEDEADYYCALYMGNGGHMFGGGTKLTVLGQPKAAPSVTLFPPSSEELQANKATLVCLISDFYPGAVTVAWKADSSPVKAGVETTTPSKQSNNKYAASSYLSLTPEQWKSHRSYSCQVTHEGSTVEKTVAPTECS
notes: also called anti-PD-L1 antibody; modified IgG1 antibody
With B1, the binding result in [1] was “no binding”; in assay [2], “no binding (tested: 5 µg/ml)”; in [4] it was “no binding (tested: 5 µg/ml)”; in assay [5], “no binding (tested: 5 µg/ml)”; in [6], “no binding (tested: 5 µg/ml)”; in assay [11], “no binding”. Besides, the “EC50 (read off the curve)” value in assay [3] is roughly 5 ng/mL; in assay [7] it was roughly 6 ng/mL; in assay [9] it was roughly 6 ng/mL. For the same molecule, the figures for the dissociation constant (Kd) in assay [8] and in assay [10] were less than 1 pM and 555 pM, respectively.

B2: wild type BCD-135 Fab antibody (Fab, V domains shown)
VH: EVQLVESGGGVVRPGGSLRLSCAASGFTFDDYAMSWVRQAPGKGLEWVSDISWSGSNTNYADSVKGRFTISRDNAKNSLYLQMNSLRAEDTALYHCARAPLLLAMTFGVGSWGQGTLVTVSS
VL: QTVVTQEPSLSVSPGGTVTLTCGLSSGTVTAINYPGWYQQTPGQAPRTLIYNTNTRHSGVPDRFSGSISGNKAALTITGAQAEDEADYYCALYMGNGGHMFGGGTK
notes: Fab made in E. coli and used as supernatant; also called Wild-BCD-135VH; control wild BCD-135 Fab
In the case of B2, the Response in assay [12] was 0.0903.

B3: 1m-BCD-135VH (Fab, V domains shown)
VH: B2 VH with D30A, D31N, R98K, M105T
VL: B2 VL with M94V, N96T, G98S
notes: Fab from E. coli supernatant; also called BCD-135 mutant Fab antibody 1m
In the case of B3, the Response in assay [12] was found to be 0.0971.

B4: 6m-BCD-135VH (Fab, V domains shown)
VH: B2 VH with D30S, D31T, R98K, L102V, M105I
VL: B2 VL with M94T, N96T, G98S
notes: Substitutions derived from the printed CDR strings; Fab from E. coli supernatant; also called BCD-135 mutant Fab antibody 6m
Take B4: the Response in [12] worked out at 0.0945.

B5: 7m-BCD-135VH (Fab, V domains shown)
VH: B2 VH with D30A, R98K, L102P, L103S, M105I
VL: B2 VL with M94E, N96T, G98S
notes: Substitutions derived from the printed CDR strings; Fab from E. coli supernatant; also called BCD-135 mutant Fab antibody 7m
Turning to B5, the Response in assay [12] came to 0.0637.

B6: 5m-BCD-135VH (Fab, V domains shown)
VH: B2 VH with D30K, D31S, M34I, R98K, L102M, M105A
VL: B2 VL with M94Y, N96T, G98S
notes: Substitutions derived from the printed CDR strings; Fab from E. coli supernatant; also called BCD-135 mutant Fab antibody 5m
With B6, the Response in assay [12] came out at 0.0623.

B7: 4m-BCD-135VH (Fab, V domains shown)
VH: B2 VH with D30A, D31N, R98K, L102P, M105T
VL: B2 VL with M94V, N96T, G98S
notes: Substitutions derived from the printed CDR strings; Fab from E. coli supernatant; also called BCD-135 mutant Fab antibody 4m
With B7, the Response in assay [12] is 0.0637.

B8: 2m-BCD-135VH (Fab, V domains shown)
VH: B2 VH with D30N, R98K, L102P, M105T
VL: B2 VL with M94T, N96T, G98S
notes: Substitutions derived from the printed CDR strings; Fab from E. coli supernatant; also called BCD-135 mutant Fab antibody 2m
On to B8, for which the Response in assay [12] was 0.0505.

What is called EC50 (read off the curve) is the midpoint of the concentration-response curve. A word on the Kd: it is the concentration at which binding is half-saturated.
